Data reported in patent publication US20210147519A1 (Regeneron, published 2021).

B1: H1H20631D (bispecific antibody, V domains shown)
VH 1: EVQLVESGGGLVQPGRSLRLSCTTSGFTFDDYAMHWVRQVPGQGLEWVAGLSWNSDTIGYADSVKGRFTISRDNAKNSLYLQMKSLKAEDTALYYCTKDFYHSLNNWNYYYFDYWGQGTLVTVSS
VH 2: EVQLVESGGGVVQPGGSLRLSCAASGFSLDDYAMHWVRQTPGKGLEWVSLISGDGSRTSYADSVKGRFTISRDNSKNSLYLKMNSLRTEDTALYYCTKDPHNSNWFDPWGQGTLVTVSS
VL: not shown
notes: H1H = human IgG1 Fc; also called anti-IsdB x anti-C1q bispecific antibody
B2: H1H20633D (bispecific antibody, V domains shown)
VH 1: B1 VH 1
VH 2: EVQLVQSGAEVKKPGESLKISCKASGYNFNSYWIGWVRQMPGKGLEWMGIVFPGDSDTRYSPSFQGQVTISADESINTAYLQWSSLKASDTAVYYCARHTRWYLDYWGQGTLVTVSS
VL: not shown
notes: also called anti-IsdB x anti-C1q bispecific antibody
B3: H1H20632D (bispecific antibody, V domains shown)
VH 1: B1 VH 1
VH 2: QVQLVESGGGVVQPGRSLRLSCAASGFTFSSYGMHWVRQAPGKGLEWVAVIWYDGSNKNYADSVKGRFTISRDSSKNTLYLQMNSLRAEDTAVYYCARENSEGYYYGMDVWGQGTTVTVSS
VL: not shown
notes: as for B2
B4: H1H20635D (bispecific antibody, V domains shown)
VH 1: B1 VH 1
VH 2: EVQLVQSGAEVKKPGESLKIFCKGSGYSFINDWIGWVRQMPGKGLEWMGLIFPGDSDTRYSPVFQGHVTISADQSIDTAYLQWNSLKASDTAIYYCAVLRYWHFAIWGRGTLVTVSS
VL: not shown
notes: as for B2
B5: H1H20642D (bispecific antibody, V domains shown)
VH 1: QLQLQESGPGLVKPSETLSLTCTVSGGSISSSSYYWVWIRQPPGKGLEWIGNIYFSGSTYYNPSLKSRVTITVDTSKNQFSLKMTSVTAADTAVYYCARPFYGSRGDYYYGMDVWGQGTTVTVSS
VH 2: EVQLVESGGGLVQPGGSLRLSCAASGFTFSNYEMNWVRQAPGKGLDWVSYISTSGSVIYYADSVKGRFTISRDNAKNSLYLEMNSLRAEDTAVYYCARGYDFWSGSDYYYGMDVWGQGTTVTVSS
VL: not shown
notes: as for B2

What was measured:
[1] = target: T1, native human complement component C1q protein purified from human serum (Quidel) (human, UniProt P02745 23-245; P02746 28-253; P02747 29-245); assay: cell-based or functional assay
T1 sequence (P02745 23-245 limits assumed, chain 1 of 3): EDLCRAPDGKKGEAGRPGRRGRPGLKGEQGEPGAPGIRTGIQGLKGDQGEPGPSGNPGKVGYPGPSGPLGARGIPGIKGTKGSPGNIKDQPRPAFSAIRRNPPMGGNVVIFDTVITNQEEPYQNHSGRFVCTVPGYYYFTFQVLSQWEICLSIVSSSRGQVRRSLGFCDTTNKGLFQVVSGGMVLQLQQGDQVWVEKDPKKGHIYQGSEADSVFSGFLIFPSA
T1 sequence (P02746 28-253 limits assumed, chain 2 of 3): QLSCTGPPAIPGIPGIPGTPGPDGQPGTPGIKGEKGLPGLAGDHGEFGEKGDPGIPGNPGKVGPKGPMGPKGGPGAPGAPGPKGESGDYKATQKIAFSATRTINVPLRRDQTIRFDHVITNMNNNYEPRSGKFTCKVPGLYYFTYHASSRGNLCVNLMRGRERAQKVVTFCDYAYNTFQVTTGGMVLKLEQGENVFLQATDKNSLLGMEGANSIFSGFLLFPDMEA
T1 sequence (P02747 29-245 limits assumed, chain 3 of 3): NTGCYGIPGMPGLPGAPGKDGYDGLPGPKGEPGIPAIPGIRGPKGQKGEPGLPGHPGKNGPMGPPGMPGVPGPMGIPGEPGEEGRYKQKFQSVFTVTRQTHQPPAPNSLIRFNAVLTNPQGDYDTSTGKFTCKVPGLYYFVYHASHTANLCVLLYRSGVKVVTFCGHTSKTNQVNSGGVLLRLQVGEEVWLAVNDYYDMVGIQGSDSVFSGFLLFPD

[2] = target: T1, native human complement component C1q …; assay: SPR Biacore, captured Ab, hC1q analyte, 37C
[3] = target: T1, native human complement component C1q …; assay: cell-based or functional assay; remark: listed apart in the source
[4] = target: T1, native human complement component C1q …; assay: SPR Biacore, captured Ab, hC1q analyte, 25C; 25 C; hC1q binding to the C1q arm of the bispecific antibody
[5] = target: T2, Recombinant bacterial IsdB expressed with a hexahistidine tag (IsdB-6xHis; REGN2655) (Staphylococcus aureus, UniProt A6QG30 42-613); assay: SPR Biacore, captured Ab, IsdB-6xHis analyte, 37C
T2 sequence (A6QG30 42-613, tags left off): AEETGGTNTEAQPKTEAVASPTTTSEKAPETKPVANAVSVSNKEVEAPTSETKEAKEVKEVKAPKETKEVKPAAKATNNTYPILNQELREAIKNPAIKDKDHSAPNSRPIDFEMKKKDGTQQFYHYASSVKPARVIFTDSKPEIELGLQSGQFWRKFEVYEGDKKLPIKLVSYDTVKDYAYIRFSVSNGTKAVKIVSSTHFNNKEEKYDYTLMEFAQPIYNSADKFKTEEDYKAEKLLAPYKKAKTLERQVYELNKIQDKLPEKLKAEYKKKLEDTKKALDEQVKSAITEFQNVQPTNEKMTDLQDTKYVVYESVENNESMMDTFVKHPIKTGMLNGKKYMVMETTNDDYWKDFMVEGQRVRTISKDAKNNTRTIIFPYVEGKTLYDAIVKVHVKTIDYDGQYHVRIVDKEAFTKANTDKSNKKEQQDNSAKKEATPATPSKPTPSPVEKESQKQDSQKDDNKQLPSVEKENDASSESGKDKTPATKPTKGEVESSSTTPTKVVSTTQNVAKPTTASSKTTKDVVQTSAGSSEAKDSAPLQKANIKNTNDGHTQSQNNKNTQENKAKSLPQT

[6] = target: T3, IsdB expressed on the surface of S. aureus Wood 46 (Staphylococcus aureus); assay: ELISA on plate-coated S. aureus Wood 46
T3 construct: whole, on cells
T3 sequence (Q2FZF0 41-613): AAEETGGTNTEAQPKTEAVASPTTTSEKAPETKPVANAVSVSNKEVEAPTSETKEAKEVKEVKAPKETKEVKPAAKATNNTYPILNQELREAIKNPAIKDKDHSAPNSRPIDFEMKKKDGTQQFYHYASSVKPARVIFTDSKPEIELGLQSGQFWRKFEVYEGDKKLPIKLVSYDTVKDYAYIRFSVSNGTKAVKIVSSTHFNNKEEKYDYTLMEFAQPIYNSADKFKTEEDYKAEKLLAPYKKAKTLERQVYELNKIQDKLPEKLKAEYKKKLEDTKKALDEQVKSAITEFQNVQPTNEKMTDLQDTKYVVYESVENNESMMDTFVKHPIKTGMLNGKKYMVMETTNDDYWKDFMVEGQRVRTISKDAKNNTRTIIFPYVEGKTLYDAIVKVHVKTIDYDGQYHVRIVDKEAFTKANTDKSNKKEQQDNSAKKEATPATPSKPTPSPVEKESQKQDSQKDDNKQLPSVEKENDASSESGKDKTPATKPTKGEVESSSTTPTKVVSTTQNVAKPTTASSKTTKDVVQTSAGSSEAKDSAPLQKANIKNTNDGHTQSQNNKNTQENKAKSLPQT
Protocol: Briefly, S. aureus Wood 46 was grown in RPMI overnight, washed in PBS and adjusted to an OD₆₀₀ of 0.25. MaxiSorp 96 well microtiter plates were coated overnight with 100 μl of S. aureus culture per well. Plates were washed and blocked with 3% BSA. […] Anti-human HRP conjugated secondary antibody was added to washed plates. Luminescence reagents (SuperSignal Pico) were then added to the wells and signal was detected in a plate reader (Victor X3 plate reader, Perkin Elmer) immediately. Luminescence values were analyzed by a four-parameter logistic equation over a 7-point response curve (GraphPad Prism) to determine the binding EC₅₀, of the antibodies.

[7] = target: T1, native human complement component C1q …; assay: SPR Biacore, captured Ab, hC1q analyte, 37C; 37 C; hC1q binding to the C1q arm of the bispecific antibody
[8] = target: T1, native human complement component C1q …; assay: cell-based or functional assay; remark: listed apart in the source
[9] = target: T2, Recombinant bacterial IsdB expressed …; assay: SPR Biacore, captured Ab, IsdB-6xHis analyte, 25C
[10] = target: T1, native human complement component C1q …; assay: SPR Biacore, captured Ab, hC1q analyte, 25C
[11] = target: T1, native human complement component C1q …; assay: competition ELISA, 6 nM biot-hC1q, competitor plate-coated hIgG2-k
[12] = target: T1, native human complement component C1q …; assay: competition ELISA, 6 nM biot-hC1q, competitor plate-coated hIgM
[13] = target: T1, native human complement component C1q …; assay: competition ELISA, 30 pM biot-hC1q, competitor plate-coated hIgG1-k
[14] = target: T1, native human complement component C1q …; assay: competition ELISA, 30 pM biot-hC1q, competitor plate-coated hIgG3-k

Binder	Classical Pathway hemolysis assay % inhibition [1]	Classical Pathway hemolysis assay IC50 [1]	t1/2 [2]	C1q deposition on S. aureus Cowan I EC50 [3]	Kd [5]	t1/2 [5]	EC50 [6]	inhibition of CDC of Daudi cells, IC50 [M] [8]	inhibition of CDC of Daudi cells, Max % Inhibition [8]	Kd [9]	t½ [9]	t½ [10]	koff [2]	kon [2]	% Blockade with 600 nM bispecific Ab [11]	IC50 [11]	% Blockade with 600 nM bispecific Ab [12]	IC50 [12]	% Blockade with 30 nM bispecific Ab [13]	% Blockade with 30 nM bispecific Ab [14]	other results
B1	100%	2.67 nM	5.19 min	0.297 nM	3.43 nM	20.7 min	1.26 nM	> 1e-07 M	94%	2.36 nM	42.8 min	7.01 min	–	–	–	–	–	–	–	–	Kd [4]: 0.228 nM; Kd [7]: 0.193 nM
B2	100%	1.42 nM	0.91 min	0.203 nM	3.41 nM	21.4 min	1.31 nM	1.7e-08 M	≥ 99%	2.04 nM	46.9 min	3.32 min	0.0127 s⁻¹	2.61e+07 M⁻¹ s⁻¹	79%	8.2 nM	96%	6.4 nM	93%	84%	Kd [2]: 0.487 nM; IC50 [13]: 1.6 nM; IC50 [14]: 4.8 nM; koff [5]: 0.00054 s⁻¹; kon [5]: 159000 M⁻¹ s⁻¹; koff [9]: 0.000247 s⁻¹; kon [9]: 121000 M⁻¹ s⁻¹; Kd [10]: 0.271 nM; koff [10]: 0.00348 s⁻¹; kon [10]: 1.28e+07 M⁻¹ s⁻¹
B3	100%	1.78 nM	1.33 min	0.529 nM	3.41 nM	21.9 min	1.08 nM	2.3e-07 M	≥ 99%	2.21 nM	45.2 min	3.64 min	0.00871 s⁻¹	4.99e+07 M⁻¹ s⁻¹	88%	23 nM	97%	18 nM	90%	86%	Kd [2]: 0.175 nM; IC50 [14]: 83 nM; koff [5]: 0.000527 s⁻¹; kon [5]: 154000 M⁻¹ s⁻¹; koff [9]: 0.000255 s⁻¹; kon [9]: 115000 M⁻¹ s⁻¹; Kd [10]: 0.294 nM; koff [10]: 0.00318 s⁻¹; kon [10]: 1.08e+07 M⁻¹ s⁻¹
B4	97%	8.88 nM	0.66 min	0.425 nM	3.33 nM	22.2 min	1.96 nM	2.8e-08 M	≥ 99%	1.7 nM	56.6 min	2.56 min	0.0174 s⁻¹	2.41e+07 M⁻¹ s⁻¹	84%	16 nM	93%	12 nM	87%	53%	Kd [4]: 0.309 nM; koff [5]: 0.00052 s⁻¹; kon [5]: 156000 M⁻¹ s⁻¹; Kd [7]: 0.723 nM; koff [9]: 0.000204 s⁻¹; kon [9]: 120000 M⁻¹ s⁻¹; koff [10]: 0.00452 s⁻¹; kon [10]: 1.46e+07 M⁻¹ s⁻¹
B5	99%	0.106 nM	28 min	0.00586 nM	16.7 nM	8.19 min	8.57 nM	1e-08 M	≥ 99%	8.26 nM	23 min	58.9 min	0.000412 s⁻¹	8.23e+06 M⁻¹ s⁻¹	80%	5 nM	72%	3.9 nM	71%	96%	Kd [2]: 0.0501 nM; IC50 [13]: 0.11 nM; IC50 [14]: 0.37 nM; koff [5]: 0.00141 s⁻¹; kon [5]: 84600 M⁻¹ s⁻¹; koff [9]: 0.000501 s⁻¹; kon [9]: 60700 M⁻¹ s⁻¹; Kd [10]: 0.0114 nM; koff [10]: 0.000196 s⁻¹; kon [10]: 1.72e+07 M⁻¹ s⁻¹
